{"source": "patent US9217013B2", "about": "“Treatment of amyloidoses using myelin basic protein and fragments thereof” (The Research Foundation for the State University of New York, priority 2008, dated 2015)", "molecules": {"B1": {"name": "myelin basic protein (protein)", "chain": "ASQKRPSQRHGSKYLATASTMDHARHGFLPRHRDTGILDSIGRFFGGDRGAPKRGSGKDSHHPARTAHYGSLPQKSHGRTQDENPVVHFFKNIVTPRTPPPSQGKGRGLSLSRFSWGAEGQRPGFGYGGRASDYKSAHKGFKGVDAQGTLSKIFKLGGRDSRSGSPMARR", "notes": "myelin basic protein, major form about 18.5 Kd (170 residues); purified protein"}}, "key": {"wild-type Aβ42": {"molecular_target": "wild-type Aβ42 (Homo sapiens, UniProt P05067)", "experiment": "Thioflavin T fluorescence assay of Aβ42 fibril formation", "format": "biochemical", "conditions": "12.5 μM Aβ42, 1.56 μM MBP", "procedure": "FIG. 19 Thioflavin T analysis for inhibition of Aβ42 fibril formation by MBP. Aβ42 at a concentration of 12.5 μM in PBS in the absence (diamond) or presence of 1.56 μM MBP (triangle) or 1.56 μM […]-lactalbumin (square) as control. The data shown are the mean S.D. of triplicate samples.\nThe Aβ B binding properties of the exemplary fragments of MBP described herein were determined in a thioflavin T fluorescence assay as follows: Lyophilized Aβ peptides were first resuspended with Me2SO to 2.5 mM, diluted to 12.5 μM in PBS, and then incubated at 37° C. with rocking either alone or with 1.56 μM MBP or bovine α-lactalbumin. Control samples containing 0.5% Me2SO and 1.56 μM MBP or lactalbumin in PBS were also included. At each time point, 100 μl samples of each reaction were placed in a 96-well microplate in triplicate, and 5 μl of 100 µM thioflavin T was added. The plate was mixed and incubated at 22° C. in the dark for 10 min. Fluorescence was measured at 490 nm with an excitation wavelength of 446 nm in a SpectraMax spectrofluorometer (Molecular Devices, Sunnyvale, Calif.) using SoftMax Pro control software. It is apparent that the method enables persons of skill in the art to determine the binding properties of MBP, variants thereof, and fragments thereof for any Aβ-peptide, including mutants thereof."}, "wild-type Aβ40 (Aβ40WT)": {"molecular_target": "wild-type Aβ40 (Aβ40WT) (Homo sapiens, UniProt P05067)", "experiment": "Surface plasmon resonance binding to wild-type Aβ40", "conditions": "compared with CAA mutant Aβ40", "procedure": "(§1) All runs were performed on a Biacore 2000 instrument using 10 mM HEPES (pH 7.4), 150 mM NaCl, 3 mM EDTA, and 0.005% (v/v) Tween 20 as running buffer and diluent. Streptavidiri was conjugated to the surface of three flow cells of a CM5 chip at 10 μl/min using amine coupling chemistry to a final average response level of 1890.2 response units. N-terminally biotinylated Aβ peptides were resuspended in Me2SO to 2.5 mM and serially diluted to 13 nM immediately before application. Biotinylated Aβ40WT and Aβ40DI were bound to individual flow cells at 10 μl/min to achieve an average relative response level of 157.1 response units, leaving flow cell 1 as reference. […] The resultant Rmax of these surfaces was ˜700 response units with MBP as analyte. Purified MBP was passed over all four flow cells at 5, 10, 25, 50, and 100 nM at a flow rate of 30 μl/min for kinetic measurements. […] Surfaces were regenerated with 0.2 M glycine (pH 2.0) and 150 mM NaCl between runs. The resulting sensorgrams were analyzed by BIAanalysis software. Triplicate concentration series were used for each surface."}, "Aβ40WT": {"molecular_target": "Aβ40WT (Homo sapiens, UniProt P05067)", "experiment": "Co-immunoprecipitation of MBP with Aβ40WT", "format": "binding", "conditions": "purified MBP", "procedure": "(§2) AP peptides were resuspended in Me2SO to 2.5 mM and used at 10.8 μM. MBP was used at 1.56 μM. Proteins were combined in 250 μl of incubation buffer (PBS, 0.05% Tween 20, and 1% BSA). Anti-MBP mAb 382 was added to each sample mixture and incubated for 1 h at 4° C. with rocking. After incubation, 20 μl of washed GammaBind protein G-Sepharose beads (Amersham Biosciences) were added to each mixture, followed by incubation for an additional 1 h at 4° C. with rocking. Beads were separated by centrifugation at 8000×g for 2 min. Supernatants were removed, and beads were washed with 1 ml of incubation buffer. Separation and washing were repeated three times. A final wash was performed in PBS and 0.05% Tween 20 to remove excess BSA. Centrifuged beads were combined with 25 μl of reducing SDS-PAGE loading buffer and heated as described above. 10 μl of each sample/loading buffer mixture was loaded onto 10-20% Tricine gels (Invitrogen) and electrophoresed at 125 V for 35 min. Immunoblotting was carried out as described above using either biotinylated anti-MBP mAb 384 or biotinylated anti-Aβ mAb 3D6 as primary antibody. Experiments were performed in triplicate."}, "Aβ42WT": {"molecular_target": "Aβ42WT (Homo sapiens, UniProt P05067)", "experiment": "Circular dichroism spectroscopy of Aβ42WT β-sheet formation", "format": "biochemical", "conditions": "MBP added to incubates, 37° C.", "source_text": "Aβ42 (□), MBP (□), Aβ42 with MBP (□).\nThe formation of β-sheet fibrils may be evaluated by circular dichroism (“CD”) spectroscopy. The technique is based on circularly polarized light. The secondary structure of proteins tends to “distort” the polarization toward the elliptical. The degree and direction of the distortion over a range of wavelengths produces spectra that are characteristic of the protein under examination and its secondary structure. One such method, suitable for use in embodiments of the present invention, is summarized below:\nPreferably, purified protein is placed in detergent-free, low-salt buffer in a cuvette having a lightpath length on the order of 1 mm. The optimal concentration of the protein may be determined by standard techniques well-known in the art, and confirmed by comparing the spectrum over a range of concentrations, using an instrument (e.g., JASCO) and cuvette properly calibrated with a standard such as d-10-camphorsulfonic acid in water. To acquire a CD spectrum, the sample is scanned over a wavelength range of about 180-260 nm (spectral width approx. 1 nm). A suitable scan rate is of the order of 100 nm/min for a response time of about 2 seconds. Preferably, however, slower scan speeds (e.g., 5 nm/min, response time around 20 seconds) are used to reduce noise."}, "[1]": {"molecular_target": "Dutch/Iowa CAA mutant Aβ40 (Aβ40DI) (Homo sapiens, UniProt P05067, D694N/E693Q)", "experiment": "Surface plasmon resonance binding to immobilized Dutch/Iowa Aβ40", "procedure": "as §1\nUsing recombinant methodology to express and purify regions of the 18.5 kDa human MBP protein and test their abilities to bind Aβ and inhibit fibrillogenesis, cDNAs were prepared for the following regions of MBP shown in FIG. 3. The cDNAs for MBP fragments were cloned into pTYB11 plasmids containing an ampr gene and transformed into competent E. coli BL21 DE3 cells. Expression of cDNAs in this vector results in a fusion protein containing a chitin binding domain (CBD) as well as a self-cleavable intein protein from S. cerevisiae. CBD-Intein-MBP fusion proteins were captured on chitin beads from the resulting cell lysates. MBP protein fragments were eluted by inducing the cleavage between the C-terminus of the intein and the N-terminus of MBP by exposure to dithiothreitol. […] MBP was further purified by cation exchange chromatography on CM52 resin, resulting in a >95% pure protein preparations. Each of the four MBP fragments were tested for binding to Dutch/Iowa Aβ40 and wild-type Aβ42 by surface plasmon resonance (FIG. 4)."}, "Aβ40DI": {"molecular_target": "Aβ40DI (Homo sapiens, UniProt P05067, D694N/E693Q)", "experiment": "Co-immunoprecipitation of MBP with Aβ40DI", "format": "binding", "conditions": "purified MBP", "procedure": "as §2"}}, "note": "Entries after “also recorded” stand apart in the source; their conditions may differ."}
{"molecule": "B1", "values": [{"measurement": "inhibition of wild-type Aβ42 fibrillogenesis (thioflavin T)", "setting": "wild-type Aβ42", "value": "prevents fibrillization; also recorded: inhibited"}, {"measurement": "binding to wild-type Aβ40", "setting": "wild-type Aβ40 (Aβ40WT)", "value": "Significantly weaker binding"}, {"measurement": "binding by immunoprecipitation", "setting": "Aβ40WT", "value": "bound"}, {"measurement": "Aβ42WT fibril formation by circular dichroism", "setting": "Aβ42WT", "value": "prevents fibril formation"}, {"measurement": "binding to Dutch/Iowa CAA mutant Aβ relative to wild-type Aβ", "setting": "[1]; SPR", "value": "bound more tightly"}, {"measurement": "Kd", "setting": "[1]; surface plasmon resonance", "value": 16.9, "unit": "nM"}, {"measurement": "preference for Aβ40DI over Aβ40WT by immunoprecipitation", "setting": "Aβ40DI", "value": "showed no preference"}]}
